Laboratory results from article PMC2756985 (Biochemistry, 2009).

Experiment: Oxygen dissociation rates of DevS proteins, stopped flow
Assay type: binding, Mycobacterium tuberculosis

B1: DevS: full length wild-type heme sensor kinase DevS of Mycobacterium tuberculosis (protein, UniProt P9WGK3 1-578, looked up)
chain: MTTGGLVDENDGAAMRPLRHTLSQLRLHELLVEVQDRVEQIVEGRDRLDGLVEAMLVVTAGLDLEATLRAIVHSATSLVDARYGAMEVHDRQHRVLHFVYEGIDEETVRRIGHLPKGLGVIGLLIEDPKPLRLDDVSAHPASIGFPPYHPPMRTFLGVPVRVRDESFGTLYLTDKTNGQPFSDDDEVLVQALAAAAGIAVANARLYQQAKARQSWIEATRDIATELLSGTEPATVFRLVAAEALKLTAADAALVAVPVDEDMPAADVGELLVIETVGSAVASIVGRTIPVAGAVLREVFVNGIPRRVDRVDLEGLDELADAGPALLLPLRARGTVAGVVVVLSQGGPGAFTDEQLEMMAAFADQAALAWQLATSQRRMRELDVLTDRDRIARDLHDHVIQRLFAIGLALQGAVPHERNPEVQQRLSDVVDDLQDVIQEIRTTIYDLHGASQGITRLRQRIDAAVAQFADSGLRTSVQFVGPLSVVDSALADQAEAVVREAVSNAVRHAKASTLTVRVKVDDDLCIEVTDNGRGLPDEFTGSGLTNLRQRAEQAGGEFTLASVPGASGTVLRWSAPLSQ
modifications: full-length
  O2 koff: 6.79 ± 0.33 ^b s^−1
